{"source": "patent US20260103529A1", "about": "“Amino Acid Sequences Directed Against the Melanocortin 4 Receptor and Polypeptides Comprising the Same for the Treatment of MC4R-Related Diseases and Disorders” (Confo Therapeutics N.V., priority 2022, published 2026)", "molecules": {"B1": {"name": "pN162: agonistic anti-MC4R VHH, SEQ ID NO: 184; parental clone for potency maturation (protein)", "VHH": "QVQLVESGGGLVQPGGSLRLSCAASGSAFSLNVMGWYRQTPGNQRALVAEITKDGSTNYADSAKGRFTISRDNAKNTVHLQMDSLKPEDTAVYYCKARTGRIVRPLDYWGQGTQVTVSS", "modifications": "pN0162"}}, "key": {"human wild type MC5R": {"molecular_target": "T1, human wild type MC5R (Homo sapiens, UniProt P33032)", "T1 construct": "expressed in transfected cells; host or cells: HEK293 / HEK 293T, pcDNA3.1(+)", "T1 sequence (P33032 whole entry)": "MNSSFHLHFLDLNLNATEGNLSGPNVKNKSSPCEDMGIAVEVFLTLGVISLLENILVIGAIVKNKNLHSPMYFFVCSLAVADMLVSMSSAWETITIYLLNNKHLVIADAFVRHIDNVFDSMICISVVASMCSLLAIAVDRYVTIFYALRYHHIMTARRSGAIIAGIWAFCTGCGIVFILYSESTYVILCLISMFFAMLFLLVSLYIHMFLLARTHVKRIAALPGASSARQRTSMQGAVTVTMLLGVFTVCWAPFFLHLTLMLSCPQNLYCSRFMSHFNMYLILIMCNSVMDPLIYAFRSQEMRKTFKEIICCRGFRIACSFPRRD", "assay": "cAMP GloSensor assay, MC5R", "assay_type": "cell-based"}, "human MC3R": {"molecular_target": "T2, human MC3R (Homo sapiens, UniProt P41968)", "T2 construct": "Flag; expressed in transfected cells; host or cells: HEK293T", "T2 sequence (P41968 whole entry)": "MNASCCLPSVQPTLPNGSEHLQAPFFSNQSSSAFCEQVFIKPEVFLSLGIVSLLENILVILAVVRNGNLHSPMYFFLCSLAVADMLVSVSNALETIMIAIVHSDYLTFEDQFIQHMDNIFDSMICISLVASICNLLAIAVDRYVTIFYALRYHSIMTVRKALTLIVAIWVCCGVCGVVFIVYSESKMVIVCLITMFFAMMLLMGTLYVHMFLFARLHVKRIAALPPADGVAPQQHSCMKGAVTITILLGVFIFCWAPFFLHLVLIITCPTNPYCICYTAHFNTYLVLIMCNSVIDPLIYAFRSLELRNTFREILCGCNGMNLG", "assay": "Flow cytometry binding to Flag-tagged receptor in HEK293T cells, MC3R", "conditions": "1 μM", "procedure": "(§1) To confirm MC4R activation, dose-dependent nanobody-induced cAMP signaling was assessed (Lance Ultra HTRF). […] Binding of pN162 to the human melanocortin receptor subtypes MC1R, MC2R, MC3R, MC4R or MC5R transiently expressed as Flag-tagged receptors in HEK293T cells was assessed by flow cytometry."}, "human MC5R": {"molecular_target": "T3, human MC5R (Homo sapiens, UniProt P33032)", "T3 construct": "Flag; expressed in transfected cells; host or cells: HEK293T", "T3 sequence (P33032 whole entry)": "as the sequence (P33032 whole entry) above", "assay": "Flow cytometry binding to Flag-tagged receptor in HEK293T cells, MC5R", "conditions": "1 μM", "procedure": "as §1"}, "WT human MC4R": {"molecular_target": "T4, WT human MC4R (Homo sapiens, UniProt P32245)", "T4 construct": "Flag (N); expressed in transfected cells; host or cells: HEK293T", "T4 sequence (P32245 whole entry)": "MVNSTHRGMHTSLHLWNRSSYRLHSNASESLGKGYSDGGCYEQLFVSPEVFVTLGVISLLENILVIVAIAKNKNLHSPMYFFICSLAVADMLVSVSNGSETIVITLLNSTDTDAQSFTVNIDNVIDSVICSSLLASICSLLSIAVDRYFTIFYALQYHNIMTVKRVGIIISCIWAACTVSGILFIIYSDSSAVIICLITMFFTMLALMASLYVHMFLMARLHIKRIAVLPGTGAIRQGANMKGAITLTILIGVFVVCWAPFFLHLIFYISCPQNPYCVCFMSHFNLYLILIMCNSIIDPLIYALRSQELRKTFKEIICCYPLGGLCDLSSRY", "assay": "β-arrestin recruitment assay", "assay_type": "cell-based", "conditions": "for EC50: WT human MC4R-expressing HEK293T cells"}, "[1]": {"tested_on": "melanized reconstituted human epidermis (RHE/MEL/001)", "assay": "In vitro pigmentation assay, 3D reconstituted human epidermis, dermoscopy", "assay_type": "cell-based", "procedure": "The study was carried out on melanized human epidermis (RHE/MEL/001; batch CB0521-3) in vitro reconstituted with NHEKs (Normal human epidermal keratinocytes, Lonza 00192906) isolated from foreskin of 3 neonatal Caucasian donors and NHEM-DP (Normal Human Epidermal Melanocytes-Darkly pigmented) isolated form one donor (phototype IV-V). The tissues were cultured at the air-liquid interface in Epilife medium (Fisher Scientific, MEP1500CA) containing specific supplements (with among others Human Keratinocytes Growth Factors, Fisher Scientific S0015 or SO01K) and antibiotics (Gentamycin, Fisher Scientific, 15710049). They were maintained in a humid atmosphere at 37° C. with 5% CO2.\nRHE/MEL/001 were reconstituted and cultivated at the air-liquid interface during 14 days in Epilife medium supplemented with specific growth supplements (as described in paragraph 1) in a humid atmosphere at 37° C. with CO2 5%.\nIBMX (Sigma; 15879) at 100 µM was used as tanning reference compound to validate the experiment. A DMSO control (corresponding to the solvent used to solubilize IBMX) at 0.02% (corresponding to the final concentration in DMSO found in the culture medium for the condition treated with IBMX) was planned as well. Four replicates were planned per condition (n=4).\nAt the end of the 10 days treatments (at day 14), macroscopic high-resolution pictures of tissues (n=4) were taken. This was performed using the C-Cube device (Dermoscope type tool; Pixience, France) coupled to C-Cube clinical 3 software, which uses a proprietary method of colour calibration, and provides razor-sharp images of high quality and precision. The following endpoints were calculated, each one taking into account 3 values from the mode “L* a* b*” with L* reflecting the luminance/brightness (value from 0 to 100 with high values for clear skins), a* to gives an idea about the redness of the skin (value from −60 to 60 on the red/green axis) and b* to gives an idea about the yellowness of the skin (value from −60 to 60 on the blue/yellow axis): • ITA (Individual Typology Angle) characterizing the phototype, compared to a standard scale, with ITA>55° for very clear skins and ITA<−30° for black skins. • PI (Pigmentation Index) whose value is directly proportional to the skin pigmentation, with PI from 140 for clear skins to 200 for dark skins. • Colorimetric difference (score or ΔE) allows to quantify colour variation between a test condition and a reference. […]\nThe two test items, hydro-soluble, were evaluated in parallel of one reference compound known to be a pigmentation inducer, namely IBMX. Their capacity to stimulate the production of melanin was evaluated by visual quantification of melanin on macroscopic high resolution pictures obtained by dermoscopy. […]"}, "MC4R": {"tested_on": "MC4R", "assay": "Radioligand displacement, CHO stable cell line", "assay_type": "binding", "conditions": "mean ± spread, n = 2"}, "human wild type MC4R": {"molecular_target": "human wild type MC4R (Homo sapiens, UniProt P32245)", "sequence (P32245 whole entry)": "as above", "assay": "cAMP signaling assay (Lance Ultra HTRF)", "assay_type": "cell-based", "design": "double Twin Strep tag; expressed in transfected cells; host or cells: HEK293", "conditions": "purified nanobodies, human MC4R-overexpressing HEK293 cells, read-out: potencies, MC4R-mediated dose-dependent cAMP accumulation", "procedure": "as §1"}, "[2]": {"conditions": "10 μM in culture medium, 10 days, dermoscopy"}}, "note": "Where two headings read alike, the source gives them in different places.", "data": [{"molecule": "B1", "values": [{"measurement": "detectable cAMP signaling, MC5R", "setting": "human wild type MC5R; GloSensor head-to-head receptor subtype comparison", "value": "only induced detectable signaling on MC4R"}, {"measurement": "cAMP potency (EC50) MC5R", "setting": "human wild type MC5R; GloSensor, average EC50, human MC5R", "value": "No effect"}, {"measurement": "binding to MC3R by flow cytometry", "setting": "human MC3R", "value": "No binding could be detected"}, {"measurement": "binding to MC5R by flow cytometry", "setting": "human MC5R", "value": "No binding could be detected"}, {"measurement": "β-arrestin2 recruitment", "setting": "WT human MC4R; Flag-tagged WT human MC4R HEK293T cells", "value": "dose-dependently recruits"}, {"measurement": "EC50", "setting": "WT human MC4R; No Ca^2+, read-out: β-arrestin No Ca^2+ (EC50)", "value": "16 ± 2.1", "unit": "nM"}, {"measurement": "dependence of β-arrestin recruitment on Ca2+ ions", "setting": "WT human MC4R; absence vs presence of 1 mM Ca2+", "value": "independent of Ca^2+ ions"}, {"measurement": "EC50", "setting": "WT human MC4R; read-out: β-arrestin 1 mM Ca^2+ (EC50), 1 mM Ca^2+", "value": "23 ± 7.1", "unit": "nM"}, {"measurement": "Individual typology angle (ITA)", "setting": "[1]; [2]", "value": "No significant effects"}, {"measurement": "pigmentation index (PI)", "setting": "[1]; [2]", "value": "No significant effects"}, {"measurement": "visual colorimetric difference (score, ΔE)", "setting": "[1]; [2]", "value": "No significant effects"}, {"measurement": "effect on epidermis pigmentation (conclusion of dermoscopy analysis)", "setting": "[1]; 10 μM, human epidermis in culture", "value": "no effect on epidermis pigmentation"}, {"measurement": "Radioligand displacement", "setting": "MC4R", "value": "6.48 ± 1.96", "unit": "nM"}, {"measurement": "EC50", "setting": "human wild type MC4R", "value": 0.7, "unit": "nM"}]}]}
